These results are taken from paper PMC3642328, “Ataxia Telangiectasia-Mutated (ATM) Kinase Activity Is Regulated by ATP-driven Conformational Changes in the Mre11/Rad50/Nbs1 (MRN) Complex*^([image sbox.jpg])” (The Journal of Biological Chemistry, 2013).

First the molecules themselves.
B2: Nbs1 (wild-type) (natural protein, human, UniProt O60934 1-754, looked up)
chain: MWKLLPAAGPAGGEPYRLLTGVEYVVGRKNCAILIENDQSISRNHAVLTANFSVTNLSQTDEIPVLTLKDNSKYGTFVNEEKMQNGFSRTLKSGDGITFGVFGSKFRIEYEPLVACSSCLDVSGKTALNQAILQLGGFTVNNWTEECTHLVMVSVKVTIKTICALICGRPIVKPEYFTEFLKAVESKKQPPQIESFYPPLDEPSIGSKNVDLSGRQERKQIFKGKTFIFLNAKQHKKLSSAVVFGGGEARLITEENEEEHNFFLAPGTCVVDTGITNSQTLIPDCQKKWIQSIMDMLQRQGLRPIPEAEIGLAVIFMTTKNYCDPQGHPSTGLKTTTPGPSLSQGVSVDEKLMPSAPVNTTTYVADTESEQADTWDLSERPKEIKVSKMEQKFRMLSQDAPTVKESCKTSSNNNSMVSNTLAKMRIPNYQLSPTKLPSINKSKDRASQQQQTNSIRNYFQPSTKKRERDEENQEMSSCKSARIETSCSLLEQTQPATPSLWKNKEQHLSENEPVDTNSDNNLFTDTDLKSIVKNSASKSHAAEKLRSNKKREMDDVAIEDEVLEQLFKDTKPELEIDVKVQKQEEDVNVRKRPRMDIETNDTFSDEAVPESSKISQENEIGKKRELKEDSLWSAKEISNNDKLQDDSEMLPKKLLLTEFRSLVIKNSTSRNPSGINDDYGQLKNFKKFKKVTYPGAGKLPHIIGGSDLIAHHARKNTELEEWLRQEMEVQNQHAKEESLADDLFRYNPYLKRRR
notes: wild-type Nbs1, component of the human MRN complex; expressed from transfer vector pTP288 / bacmid pTP291; Used apart from MR (added to MR complexes, coated on PMMA beads); source: Sf21 insect cells, baculovirus, purified

For one data set, the target named is T1, ATM (Homo sapiens, UniProt Q13315, Y2755A).
T1 construct: full-length, Flag-tagged and HA-tagged, transiently expressed in human 293T cells, purified as dimer
Put plainly: kinase assay, GST-p53 Ser-15 phosphorylation, Western blot. It counts as biochemical. The following applies: H2O2-activated ATM without MRN; analog 1 mM; pH 7.5, 5 mM Mg, 30 C.

The target of data set [1] is Mre11/Rad50 (MR) complex, wild-type full-length (human) (UniProt P49959). Put plainly: scanning force microscopy (SFM); protein alone: 3 nM human MR in 25 mM Tris-HCl pH 8.0, 10% glycerol, 100 mM NaCl, 1 mM DTT; diluted 5-fold in 10 mM HEPES pH 8.0, 20 mM MgCl2, deposited on mica, imaged in air by tapping mode; forms counted by the number of Rad50 coiled-coils.
The target of data set [2] is B2. Put plainly: KinExA (kinetic exclusion assay); in the presence of ATP (concentration not stated); 1, 5 and 25 nM MR incubated with 6.1 pM to 400 nM Nbs1 (2-fold dilutions) 1 h at room temperature; free MR captured on Nbs1-coated PMMA beads, detected with anti-Mre11 and Cy5 secondary antibody; PBS; n-Curve Analysis. Conditions: both partners purified. In general terms: Kinetic exclusion samples the free partner from a solution-phase mixture.

Data set [3] addresses B2. Briefly: KinExA (kinetic exclusion assay); without ATP; 1, 5 and 25 nM MR incubated with 6.1 pM to 400 nM Nbs1 (2-fold dilutions) 1 h at room temperature; free MR captured on Nbs1-coated PMMA beads, detected with anti-Mre11 and Cy5 secondary antibody; PBS; n-Curve Analysis. Conditions: both partners purified.
In data set [4] the target is T2, Mre11/Rad50 (MR) complex, wild-type full-length (human, UniProt P49959 1-708; Q92878 1-1312).
T2 construct: wild-type human Mre11, transfer vector pTP813 / bacmid pTP814; wild-type human Rad50, transfer vector pTP11; 1312 residues by the printed construct limits; The unit written here is one Mre11 with one Rad50; also called wild-type MR; human MR; source: Sf21 insect cells, coexpression with baculovirus, purified
Put plainly: KinExA (kinetic exclusion assay); in the presence of ATP (concentration not stated); 1, 5 and 25 nM MR incubated with 6.1 pM to 400 nM Nbs1 (2-fold dilutions) 1 h at room temperature; free MR captured on Nbs1-coated PMMA beads, detected with anti-Mre11 and Cy5 secondary antibody; PBS; n-Curve Analysis. The following applies: both partners purified.

Data set [5] deals with T3, Mre11/Rad50(C2G) complex (Rad50 C681G/C684G) (human, UniProt P49959 1-708; Q92878 1-1312, C681G | C684G).
T3 construct: wild-type human Mre11 (pTP813), as the Mre11 chain of m2; human Rad50 with both zinc hook cysteines mutated; made by QuikChange mutagenesis from pTP11 (the wild-type Rad50 of m2); Zinc hook mutant; also called MR(C2G); C2G MR complex; source: Sf21 insect cells, coexpression with baculovirus, purified
Described as above. The following applies: both partners purified.

Data set [6] has as its target T2, Mre11/Rad50 (MR) complex, wild-type …. Briefly: KinExA (kinetic exclusion assay); without ATP; 1, 5 and 25 nM MR incubated with 6.1 pM to 400 nM Nbs1 (2-fold dilutions) 1 h at room temperature; free MR captured on Nbs1-coated PMMA beads, detected with anti-Mre11 and Cy5 secondary antibody; PBS; n-Curve Analysis. Conditions: both partners purified.
In data set [7] the target is T4, Mre11/Rad50(C2G) complex (Rad50 C681G/C684G) (human, UniProt P49959 1-708; Q92878 1-1312, C681G | C684G). Put plainly: -ATP.
For data set [8], the target named is T4, Mre11/Rad50(C2G) complex (Rad50 …. Put plainly: +ATP.
Data set [9] deals with Mre11/Rad50/Nbs1 (MRN) wild-type (human, UniProt P49959;Q92878;O60934 1-708;1-1312;1-754). Put plainly: EMSA; 0.5 mM AMP-PNP, 5 mM MgCl2, Nbs1 present, 100-200 nM MR; EMSA (Fig. 6A): 10 nM DNA, 25 mM MOPS pH 7.0, 20 mM Tris pH 8.0, 5 mM MgCl2, 8% glycerol, 80 mM NaCl, 2 mM DTT, 0.5 mM AMP-PNP, temperature not stated; SFM: 25. The following applies: protein: recombinant; chain copies: 2;2;2; label: Cy5 at 3' end of TP2109; 41 bp duplex, 4 nt 3' overhang on strand 2, other end blunt.

For a further data set, the target named is MR(C2G)N (human, UniProt P49959;Q92878;O60934 1-708;1-1312;1-754, C681G;C684G;Rad50). Briefly: EMSA; 0.5 mM AMP-PNP, 5 mM MgCl2, Nbs1 present; altered mobility and complex formation efficiency vs WT; EMSA (Fig. 6A): 10 nM DNA, 25 mM MOPS pH 7.0, 20 mM Tris pH 8.0, 5 mM MgCl2, 8% glycerol, 80 mM NaCl, 2 mM DTT, 0.5 mM AMP-PNP, temperature not stated; SFM: 25. The following applies: protein: recombinant; chain copies: 2;2;1; label: Cy5 at 3' end of TP2109; 41 bp duplex, 4 nt 3' overhang on strand 2, other end blunt. Background: Mobility shift assays separate free from complexed probe on a gel.

Several values for one entry are separate records, joined by “and”; a condition that tells them apart may be missing. Equal entries are not always repeated.

T1 sequence (Q13315 2-3056 Y2755A): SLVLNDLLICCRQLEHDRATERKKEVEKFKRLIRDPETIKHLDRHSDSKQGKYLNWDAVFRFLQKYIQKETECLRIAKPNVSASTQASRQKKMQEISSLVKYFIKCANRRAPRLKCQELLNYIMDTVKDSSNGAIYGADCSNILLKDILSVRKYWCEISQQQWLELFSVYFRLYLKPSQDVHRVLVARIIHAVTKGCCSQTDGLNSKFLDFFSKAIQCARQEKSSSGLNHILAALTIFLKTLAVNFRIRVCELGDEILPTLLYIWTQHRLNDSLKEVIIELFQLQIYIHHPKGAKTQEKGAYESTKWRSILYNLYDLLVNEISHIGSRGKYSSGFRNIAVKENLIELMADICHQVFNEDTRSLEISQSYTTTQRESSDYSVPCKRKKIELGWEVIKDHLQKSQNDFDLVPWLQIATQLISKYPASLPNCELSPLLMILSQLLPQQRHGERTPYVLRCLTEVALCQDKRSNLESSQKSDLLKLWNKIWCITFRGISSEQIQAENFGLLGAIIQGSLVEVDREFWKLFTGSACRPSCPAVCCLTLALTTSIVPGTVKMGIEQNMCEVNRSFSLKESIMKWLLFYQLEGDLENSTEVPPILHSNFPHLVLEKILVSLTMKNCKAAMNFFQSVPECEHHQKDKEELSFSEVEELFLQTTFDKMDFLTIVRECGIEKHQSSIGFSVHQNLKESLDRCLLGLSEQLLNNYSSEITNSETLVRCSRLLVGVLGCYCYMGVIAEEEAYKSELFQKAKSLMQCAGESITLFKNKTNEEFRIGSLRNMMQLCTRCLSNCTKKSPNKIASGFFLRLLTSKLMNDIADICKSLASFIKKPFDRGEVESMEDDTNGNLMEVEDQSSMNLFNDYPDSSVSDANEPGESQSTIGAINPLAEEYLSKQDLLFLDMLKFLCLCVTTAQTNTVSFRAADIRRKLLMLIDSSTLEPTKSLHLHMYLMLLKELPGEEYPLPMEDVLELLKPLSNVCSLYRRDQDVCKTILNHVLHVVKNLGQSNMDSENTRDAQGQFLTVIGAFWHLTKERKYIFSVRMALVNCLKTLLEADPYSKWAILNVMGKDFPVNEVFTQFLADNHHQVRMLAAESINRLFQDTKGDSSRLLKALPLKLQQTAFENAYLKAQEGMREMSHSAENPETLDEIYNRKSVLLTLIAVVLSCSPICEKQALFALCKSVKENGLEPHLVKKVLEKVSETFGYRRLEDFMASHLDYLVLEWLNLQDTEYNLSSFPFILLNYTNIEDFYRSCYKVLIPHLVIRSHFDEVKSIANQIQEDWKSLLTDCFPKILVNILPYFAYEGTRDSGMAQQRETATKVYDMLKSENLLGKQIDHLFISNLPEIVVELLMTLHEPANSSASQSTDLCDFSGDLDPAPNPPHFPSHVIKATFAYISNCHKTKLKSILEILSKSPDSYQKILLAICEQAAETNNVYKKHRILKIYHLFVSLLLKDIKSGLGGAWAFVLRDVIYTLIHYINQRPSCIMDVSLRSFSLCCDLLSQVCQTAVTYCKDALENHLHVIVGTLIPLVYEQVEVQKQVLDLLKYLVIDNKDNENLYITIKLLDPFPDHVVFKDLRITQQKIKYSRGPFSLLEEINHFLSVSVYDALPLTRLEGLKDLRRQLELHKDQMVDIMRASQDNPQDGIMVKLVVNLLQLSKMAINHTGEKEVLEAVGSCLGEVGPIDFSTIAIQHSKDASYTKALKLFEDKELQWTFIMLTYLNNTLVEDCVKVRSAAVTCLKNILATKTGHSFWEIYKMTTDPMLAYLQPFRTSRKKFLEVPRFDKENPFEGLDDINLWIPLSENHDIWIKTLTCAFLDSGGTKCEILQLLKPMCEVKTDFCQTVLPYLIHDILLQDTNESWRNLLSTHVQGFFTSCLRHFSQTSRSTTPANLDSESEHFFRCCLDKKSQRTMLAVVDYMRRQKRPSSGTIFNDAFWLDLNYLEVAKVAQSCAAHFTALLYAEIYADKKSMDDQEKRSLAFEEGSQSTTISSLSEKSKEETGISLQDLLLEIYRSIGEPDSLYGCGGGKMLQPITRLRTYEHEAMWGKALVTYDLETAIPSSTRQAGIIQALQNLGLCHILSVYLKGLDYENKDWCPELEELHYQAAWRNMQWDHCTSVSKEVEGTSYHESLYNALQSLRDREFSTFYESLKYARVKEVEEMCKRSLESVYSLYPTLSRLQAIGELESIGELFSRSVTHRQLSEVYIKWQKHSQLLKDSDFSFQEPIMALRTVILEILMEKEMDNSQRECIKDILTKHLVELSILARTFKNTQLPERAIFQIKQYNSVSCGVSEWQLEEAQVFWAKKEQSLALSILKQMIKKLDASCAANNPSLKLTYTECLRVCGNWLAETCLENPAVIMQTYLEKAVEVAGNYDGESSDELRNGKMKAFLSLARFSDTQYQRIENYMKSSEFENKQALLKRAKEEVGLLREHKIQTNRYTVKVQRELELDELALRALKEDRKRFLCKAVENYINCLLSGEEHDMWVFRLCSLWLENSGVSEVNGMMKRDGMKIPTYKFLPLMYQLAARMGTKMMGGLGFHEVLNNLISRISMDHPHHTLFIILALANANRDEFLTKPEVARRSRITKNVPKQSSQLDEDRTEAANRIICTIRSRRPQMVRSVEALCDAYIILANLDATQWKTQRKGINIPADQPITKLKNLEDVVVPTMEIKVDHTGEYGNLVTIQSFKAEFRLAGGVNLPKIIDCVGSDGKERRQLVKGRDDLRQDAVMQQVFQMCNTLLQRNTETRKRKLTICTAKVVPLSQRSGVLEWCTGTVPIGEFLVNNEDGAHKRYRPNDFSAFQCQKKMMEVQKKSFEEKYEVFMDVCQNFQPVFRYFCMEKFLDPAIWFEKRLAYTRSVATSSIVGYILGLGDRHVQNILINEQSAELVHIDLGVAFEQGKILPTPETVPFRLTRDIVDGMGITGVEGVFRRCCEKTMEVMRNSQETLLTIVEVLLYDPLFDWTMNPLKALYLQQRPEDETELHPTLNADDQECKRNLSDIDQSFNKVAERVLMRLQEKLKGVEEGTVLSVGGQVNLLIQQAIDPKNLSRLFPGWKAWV

As to `O=P(O)(O)OP(=O)(O)OP(=O)(O)OC[C@H]1O[C@@H](n2cnc3c(NCc4ccco4)ncnc32)[C@H](O)[C@@H]1O` [N6-(furfuryl)-ATP, N6-furfuryladenosine-5′-O-triphosphate], on ATM, the “kinase assay, GST-p53 Ser-15 phosphorylation, Western blot” value was “This nucleotide was utilized by Y2755A ATM but not by wild-type ATM”.
For orientation: stoichiometry N means the number of molecules, sites or subunits per partner or assembly. With “Mre11/Rad50 (MR) complex, wild-type full-length, P49959 1-708; Q92878 1-1312”, the stoichiometry N in [1] is 2 and > 4.

B1: Mre11/Rad50(DelCC) complex (Rad50 coiled-coil region replaced with a linker) (complex, human)
chain 1: MSTADALDDENTFKILVATDIHLGFMEKDAVRGNDTFVTLDEILRLAQENEVDFILLGGDLFHENKPSRKTLHTCLELLRKYCMGDRPVQFEILSDQSVNFGFSKFPWVNYQDGNLNISIPVFSIHGNHDDPTGADALCALDILSCAGFVNHFGRSMSVEKIDISPVLLQKGSTKIALYGLGSIPDERLYRMFVNKKVTMLRPKEDENSWFNLFVIHQNRSKHGSTNFIPEQFLDDFIDLVIWGHEHECKIAPTKNEQQLFYISQPGSSVVTSLSPGEAVKKHVGLLRIKGRKMNMHKIPLHTVRQFFMEDIVLANHPDIFNPDNPKVTQAIQSFCLEKIEEMLENAERERLGNSHQPEKPLVRLRVDYSGGFEPFSVLRFSQKFVDRVANPKDIIHFFRHREQKEKTGEEINFGKLITKPSEGTTLRVEDLVKQYFQTAEKNVQLSLLTERGMGEAVQEFVDKEEKDAIEELVKYQLEKTQRFLKERHIDALEDKIDEEVRRFRETRQKNTNEEDDEVREAMTRARALRSQSEESASAFSADDLMSIDLAEQMANDSDDSISAATNKGRGRGRGRRGGRGQNSASRGGSQRGRADTGLETSTRSRNSKTAVSASRNMSIIDAFKSTRQQPSRNVTTKNYSEVIEVDESDVEEDIFPTTSKTDQRWSSTSSSKIMSQSQVSKGVDFESSEDDDDDPFMNTSSLRRNRR
chain 2: MSRIEKMSILGVRSFGIEDKDKQIITFFSPLTILVGPNGAGKTTIIECLKYICTGDFPPGTKGNTFVHDPKVAQETDVRAQIRLQFRDVNGELIAVQRSMVCTQKSKKTEFKTLEGVITRTKHGEKVSLSSKCAEIDREMISSLGVSKAVLNNVIFCHQEDSNWPLSEGKALKQKFDEIFSATRYIKALETLRQVRQTQGQKVKEYQMELKYLKQYPPAAAGGYREMMIVMRTTELVNKDLDIYYKTLDQAIMKFHSMKMEEINKIIRDLWRSTYRGQDIEYIEIRSDADENVSASDKRRNYNYRVVMLKGDTALDMRGRCSAGQKVLASLIIRLALAETFCLNCGIIALDEPTTNLDRENIESLAHALVEIIKSRSQQRNFQLLVITHDEDFVELLGRSEYVEKFYRIKKNIDQCSEIVKCSVSSLGFNVH
notes: wild-type human Mre11 (pTP813), as the Mre11 chain of m2; human Rad50 N terminus, amino acids 1-216; linker peptide between the two Rad50 domains; human Rad50 C terminus, amino acids 1104-1312; The His tag is inferred from the vector name only; also called MR(DelCC); DelCC MR; source: Sf21 insect cells, coexpression with baculovirus (Bac-to-Bac), purified
What is called Kd is the equilibrium constant for the complex coming apart. Regarding B1, the figures for the Kd with Nbs1 (wild-type) [2] and in the data set with Nbs1 (wild-type) [3] were 0.0503 nM and 17.7 nM, respectively.
With B2, the Kd in data set [4] was 0.00382 nM; in data set [6], 0.00917 nM; in data set [7], 7.3 nM; in data set [8], 0.11 nM. Besides, the “fold higher affinity in the presence of ATP than in the absence of ATP” value in data set [5] was approximately 70 fold.

B3: TP2151/TP2109 (dsDNA)
DNA 1: CTTGCATGCCTCAGCTATTCCGGATTATTCATACCGTCCCA
DNA 2: TGGGACGGTATGAATAATCCGGAATAGCTGAGGCATGCAAGTCTA
Take B3: the binding result (in [9]; with MR(C2G)N) was “binds” throughout.
